The results in this text go back to article PMC6555819, “Comprehensive study of nuclear receptor DNA binding provides a revised framework for understanding receptor specificity”.

To fix the notation:
B1: NRC3_wobSeed61_DR2_C7A_o1 (dsDNA)
DNA 1: GCCGTCAAAGGTCAGCAGGTCAGTGAAAGCGACGTGGCGATTGACAGCGTAGAATGAAGG
DNA 2: CCTTCATTCTACGCTGTCAATCGCCACGTCGCTTTCACTGACCTGCTGACCTTTGACGGC
B2: NRC3_random_hg19_457_o1 (dsDNA)
DNA 1: GCAGCTGCATCCATGTTGCTGCAAAGGACATGACTTGCGATTGACAGCGTAGAATGAAGG
DNA 2: CCTTCATTCTACGCTGTCAATCGCAAGTCATGTCCTTTGCAGCAACATGGATGCAGCTGC
B3: NRC3_random_hg19_281_o1 (dsDNA)
DNA 1: GCTTGTTGCTTCTGTTCTACGCCAGTGACTTGGAAAGCGATTGACAGCGTAGAATGAAGG
DNA 2: CCTTCATTCTACGCTGTCAATCGCTTTCCAAGTCACTGGCGTAGAACAGAAGCAACAAGC
B4: NRC3_random_hg19_127_o1 (dsDNA)
DNA 1: GCATGAGGTACTGATACATGCTACAATGTGTATGTAGCGATTGACAGCGTAGAATGAAGG
DNA 2: CCTTCATTCTACGCTGTCAATCGCTACATACACATTGTAGCATGTATCAGTACCTCATGC
B5: NRC3_wobSeed130_DR5_C13G_o1 (dsDNA)
DNA 1: GCCTCGAAAGGTGGTGCTCAGGTGAGTATACCAAACGCGATTGACAGCGTAGAATGAAGG
DNA 2: CCTTCATTCTACGCTGTCAATCGCGTTTGGTATACTCACCTGAGCACCACCTTTCGAGGC
B6: NRC3_wobSeed42_DR1_G22A_o1 (dsDNA)
DNA 1: GCTATACAGGGTCAAAGGCCAAAGTACGAATGTCGAGCGATTGACAGCGTAGAATGAAGG
DNA 2: CCTTCATTCTACGCTGTCAATCGCTCGACATTCGTACTTTGGCCTTTGACCCTGTATAGC
B7: NRC3_wobSeed36_DR1_G12T_o1 (dsDNA)
DNA 1: GCCCGACTGGGTCAAAGGTTACCATACTCAGTACGAGCGATTGACAGCGTAGAATGAAGG
DNA 2: CCTTCATTCTACGCTGTCAATCGCTCGTACTGAGTATGGTAACCTTTGACCCAGTCGGGC
B8: NRC3_wobSeed10_DR0_G6A_o1 (dsDNA)
DNA 1: GCATCAAAAGGTCGAGGTGAGTATAGAGAAAGGGAAGCGATTGACAGCGTAGAATGAAGG
DNA 2: CCTTCATTCTACGCTGTCAATCGCTTCCCTTTCTCTATACTCACCTCGACCTTTTGATGC
B9: NRC3_wobSeed53_DR2_A17G_o1 (dsDNA)
DNA 1: GCCCTTACGGGTCACGGGGTTATAGCACGACGAGCGGCGATTGACAGCGTAGAATGAAGG
DNA 2: CCTTCATTCTACGCTGTCAATCGCCGCTCGTCGTGCTATAACCCCGTGACCCGTAAGGGC
B10: NRC3_random_hg19_476_o1 (dsDNA)
DNA 1: GCACAGCAAAGAGGCCAGCATGGCTAGAGCAGATCAGCGATTGACAGCGTAGAATGAAGG
DNA 2: CCTTCATTCTACGCTGTCAATCGCTGATCTGCTCTAGCCATGCTGGCCTCTTTGCTGTGC
B11: NRC3_random_hg19_205_o1 (dsDNA)
DNA 1: GCGAATCATCATGAGCTCAGAATGATCCTAGGCAGAGCGATTGACAGCGTAGAATGAAGG
DNA 2: CCTTCATTCTACGCTGTCAATCGCTCTGCCTAGGATCATTCTGAGCTCATGATGATTCGC
B12: NRC3_random_hg19_386_o1 (dsDNA)
DNA 1: GCTCCCTTCCCTTCCCTTCCCTTCCCACAACCACTGGCGATTGACAGCGTAGAATGAAGG
DNA 2: CCTTCATTCTACGCTGTCAATCGCCAGTGGTTGTGGGAAGGGAAGGGAAGGGAAGGGAGC
B13: NRC3_random_hg19_37_o1 (dsDNA)
DNA 1: GCTTTGCCAGGTGCGGTGGCTCAATGCCTGTAATCCGCGATTGACAGCGTAGAATGAAGG
DNA 2: CCTTCATTCTACGCTGTCAATCGCGGATTACAGGCATTGAGCCACCGCACCTGGCAAAGC
B14: NRC3_random_hg19_84_o1 (dsDNA)
DNA 1: GCGTAAGACACCTTCCTAGGAAGAGAACAGCAGAATGCGATTGACAGCGTAGAATGAAGG
DNA 2: CCTTCATTCTACGCTGTCAATCGCATTCTGCTGTTCTCTTCCTAGGAAGGTGTCTTACGC
B15: NRC3_wobSeed45_DR1_A20G_o1 (dsDNA)
DNA 1: GCTGTCAAAGTTCAAAGGTGACGTAAGTATCCACACGCGATTGACAGCGTAGAATGAAGG
DNA 2: CCTTCATTCTACGCTGTCAATCGCGTGTGGATACTTACGTCACCTTTGAACTTTGACAGC
B16: NRC3_wobSeed2_DR0_G17C_o1 (dsDNA)
DNA 1: GCCCTAGTTGGTCAAGCTCACACACGCTATAGGTACGCGATTGACAGCGTAGAATGAAGG
DNA 2: CCTTCATTCTACGCTGTCAATCGCGTACCTATAGCGTGTGTGAGCTTGACCAACTAGGGC
B17: NRC3_wobSeed77_DR3_G19C_o1 (dsDNA)
DNA 1: GCACTTACGGGTCAACGACGTTATAGCACGCGTATAGCGATTGACAGCGTAGAATGAAGG
DNA 2: CCTTCATTCTACGCTGTCAATCGCTATACGCGTGCTATAACGTCGTTGACCCGTAAGTGC
B18: NRC3_random_hg19_429_o1 (dsDNA)
DNA 1: GCTTAGTGAAGTGAAGGTTGCTTTCTACTCATTTGAGCGATTGACAGCGTAGAATGAAGG
DNA 2: CCTTCATTCTACGCTGTCAATCGCTCAAATGAGTAGAAAGCAACCTTCACTTCACTAAGC
B19: NRC3_wobSeed34_DR1_G20C_o1 (dsDNA)
DNA 1: GCATCGAAAGGTCGAAGGTCAGTATACCCACCCGAAGCGATTGACAGCGTAGAATGAAGG
DNA 2: CCTTCATTCTACGCTGTCAATCGCTTCGGGTGGGTATACTGACCTTCGACCTTTCGATGC
B20: NRC3_wobSeed36_DR1_T8G_o1 (dsDNA)
DNA 1: B7 DNA 1 with T8G, T12G
DNA 2: B7 DNA 2 with A49C, A53C

Positions count from the first letter of the chain named.

Chain of RARg:RXRa (P13631 whole entry, chain 1 of 2): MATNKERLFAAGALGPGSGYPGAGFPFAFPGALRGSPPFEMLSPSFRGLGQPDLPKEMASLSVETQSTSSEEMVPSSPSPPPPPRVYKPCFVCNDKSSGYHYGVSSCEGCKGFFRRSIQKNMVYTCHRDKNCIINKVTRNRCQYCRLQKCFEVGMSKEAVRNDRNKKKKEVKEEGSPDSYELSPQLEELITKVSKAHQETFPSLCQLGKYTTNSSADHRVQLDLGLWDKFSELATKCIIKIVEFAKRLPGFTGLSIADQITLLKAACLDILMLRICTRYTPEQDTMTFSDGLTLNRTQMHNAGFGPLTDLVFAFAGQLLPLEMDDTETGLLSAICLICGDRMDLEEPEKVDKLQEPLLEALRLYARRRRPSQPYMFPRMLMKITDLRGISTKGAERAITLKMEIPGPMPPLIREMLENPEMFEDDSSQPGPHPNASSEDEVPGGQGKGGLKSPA
Chain of RARg:RXRa (P19793 whole entry, chain 2 of 2): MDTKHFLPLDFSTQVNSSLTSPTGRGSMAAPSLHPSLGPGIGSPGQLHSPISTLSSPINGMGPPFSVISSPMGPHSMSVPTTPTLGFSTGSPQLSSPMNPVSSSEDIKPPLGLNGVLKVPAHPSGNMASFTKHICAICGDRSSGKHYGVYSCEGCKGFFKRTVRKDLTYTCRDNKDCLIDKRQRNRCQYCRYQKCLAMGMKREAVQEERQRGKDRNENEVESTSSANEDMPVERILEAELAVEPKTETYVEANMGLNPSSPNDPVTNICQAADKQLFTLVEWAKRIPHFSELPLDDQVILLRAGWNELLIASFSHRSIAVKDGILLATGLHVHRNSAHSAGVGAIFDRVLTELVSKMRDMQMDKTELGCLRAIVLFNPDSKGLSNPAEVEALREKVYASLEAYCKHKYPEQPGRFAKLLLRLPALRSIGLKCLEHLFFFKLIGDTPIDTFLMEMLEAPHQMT
Chain of RXRa (P19793 whole entry): as the sequence (P19793 whole entry, chain 2 of 2) above
Chain of VDR:RXRa (P11473 whole entry, chain 1 of 2): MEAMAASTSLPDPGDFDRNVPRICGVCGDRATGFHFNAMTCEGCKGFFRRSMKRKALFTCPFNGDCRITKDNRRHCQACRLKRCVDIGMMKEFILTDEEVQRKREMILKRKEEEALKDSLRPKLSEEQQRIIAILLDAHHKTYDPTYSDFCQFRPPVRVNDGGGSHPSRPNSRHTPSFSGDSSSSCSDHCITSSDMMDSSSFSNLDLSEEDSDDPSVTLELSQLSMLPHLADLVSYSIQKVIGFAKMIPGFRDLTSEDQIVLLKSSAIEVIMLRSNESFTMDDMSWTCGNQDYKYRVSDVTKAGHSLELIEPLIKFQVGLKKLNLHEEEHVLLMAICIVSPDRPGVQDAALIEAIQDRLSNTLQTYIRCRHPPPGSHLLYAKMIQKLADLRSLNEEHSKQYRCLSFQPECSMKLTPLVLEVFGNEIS
Chain of VDR:RXRa (P19793 whole entry, chain 2 of 2): as the sequence (P19793 whole entry, chain 2 of 2) above
Chain of RARa:RXRa (P10276 whole entry, chain 1 of 2): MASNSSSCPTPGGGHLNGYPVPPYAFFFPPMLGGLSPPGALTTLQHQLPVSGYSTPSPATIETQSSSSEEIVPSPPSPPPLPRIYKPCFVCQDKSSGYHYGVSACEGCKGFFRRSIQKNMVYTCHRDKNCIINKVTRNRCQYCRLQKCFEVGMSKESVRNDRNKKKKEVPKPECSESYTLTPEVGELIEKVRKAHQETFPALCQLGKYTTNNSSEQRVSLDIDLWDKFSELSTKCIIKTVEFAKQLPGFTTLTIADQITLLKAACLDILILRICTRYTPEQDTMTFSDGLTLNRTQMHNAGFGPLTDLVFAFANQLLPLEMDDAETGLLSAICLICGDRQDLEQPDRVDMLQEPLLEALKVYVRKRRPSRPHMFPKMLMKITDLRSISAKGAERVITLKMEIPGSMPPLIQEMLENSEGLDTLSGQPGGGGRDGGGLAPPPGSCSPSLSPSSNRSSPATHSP
Chain of RARa:RXRa (P19793 whole entry, chain 2 of 2): as the sequence (P19793 whole entry, chain 2 of 2) above
Chain of FXR:RXRa (Q96RI1 whole entry, chain 1 of 2): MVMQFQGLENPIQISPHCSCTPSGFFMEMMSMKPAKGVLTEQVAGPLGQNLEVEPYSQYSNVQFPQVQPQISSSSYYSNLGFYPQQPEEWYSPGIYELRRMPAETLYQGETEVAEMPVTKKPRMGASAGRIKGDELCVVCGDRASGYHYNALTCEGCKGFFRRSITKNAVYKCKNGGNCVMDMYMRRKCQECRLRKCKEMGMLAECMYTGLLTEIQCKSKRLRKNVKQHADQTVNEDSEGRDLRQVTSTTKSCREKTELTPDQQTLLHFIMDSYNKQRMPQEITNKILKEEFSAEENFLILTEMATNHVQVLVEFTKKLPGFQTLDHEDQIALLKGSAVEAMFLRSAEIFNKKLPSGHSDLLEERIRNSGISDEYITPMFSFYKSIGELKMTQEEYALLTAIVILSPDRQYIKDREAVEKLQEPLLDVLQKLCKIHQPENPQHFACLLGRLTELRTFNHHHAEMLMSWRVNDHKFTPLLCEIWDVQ
Chain of FXR:RXRa (P19793 whole entry, chain 2 of 2): as the sequence (P19793 whole entry, chain 2 of 2) above
Chain of PPARa:RXRa (Q07869 whole entry, chain 1 of 2): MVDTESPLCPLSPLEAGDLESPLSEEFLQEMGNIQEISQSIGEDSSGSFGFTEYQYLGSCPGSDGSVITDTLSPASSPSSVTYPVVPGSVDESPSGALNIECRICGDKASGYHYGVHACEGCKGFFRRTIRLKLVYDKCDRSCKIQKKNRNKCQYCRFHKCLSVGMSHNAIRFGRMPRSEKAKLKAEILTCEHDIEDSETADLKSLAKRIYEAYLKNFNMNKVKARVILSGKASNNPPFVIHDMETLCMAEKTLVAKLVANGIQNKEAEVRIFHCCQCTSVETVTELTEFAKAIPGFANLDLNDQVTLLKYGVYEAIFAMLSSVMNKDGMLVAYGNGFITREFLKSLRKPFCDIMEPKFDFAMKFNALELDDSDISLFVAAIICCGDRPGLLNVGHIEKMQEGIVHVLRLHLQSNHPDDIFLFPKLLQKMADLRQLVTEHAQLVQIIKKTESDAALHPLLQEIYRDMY
Chain of PPARa:RXRa (P19793 whole entry, chain 2 of 2): as the sequence (P19793 whole entry, chain 2 of 2) above
Chain of RARb:RXRa (P10826 whole entry, chain 1 of 2): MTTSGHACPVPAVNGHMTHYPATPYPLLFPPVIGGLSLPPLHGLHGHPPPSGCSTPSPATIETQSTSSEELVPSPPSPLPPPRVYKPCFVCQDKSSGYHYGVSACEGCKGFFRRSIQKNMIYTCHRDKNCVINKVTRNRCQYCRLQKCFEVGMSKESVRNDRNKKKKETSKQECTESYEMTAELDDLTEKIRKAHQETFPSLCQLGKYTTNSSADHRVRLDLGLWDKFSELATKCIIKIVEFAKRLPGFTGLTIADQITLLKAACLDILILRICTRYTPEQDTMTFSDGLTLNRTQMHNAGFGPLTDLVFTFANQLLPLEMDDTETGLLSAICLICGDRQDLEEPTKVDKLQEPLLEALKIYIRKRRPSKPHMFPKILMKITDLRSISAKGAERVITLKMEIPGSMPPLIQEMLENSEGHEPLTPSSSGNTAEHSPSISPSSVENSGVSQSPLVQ
Chain of RARb:RXRa (P19793 whole entry, chain 2 of 2): as the sequence (P19793 whole entry, chain 2 of 2) above

In the first data set the target is RARb:RXRa (Homo sapiens, UniProt P10826;P19793 full;full). The data set is described as follows: no ligand; PBM; 270 nM : 90 nM RXRa; PBS pH 7.4, 2% milk, 0.02% Triton X-100, 1 mM DTT, BSA, 0.4 mg/ml salmon testes DNA. The following applies: tags: His kept;His cleaved; copies: 1;1; label: surface-attached array probe. A digest of the protocol:
(§1)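 For binding z-scores, the reference was random background probes on custom Agilent 4×180K protein-binding microarrays. These arrays were incubated 1 h with ligand-free nuclear receptor dimers in PBS pH 7.4, 2% milk, 0.02% Triton X-100, 1 mM DTT, 0.2 mg/mL BSA and 0.4 mg/ml salmon testes DNA. Fluorescence was scanned after antibody detection of each partner (one per run) and regression-normalized.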
For the molecule B1, the binding signal was 6.16 PBM z-score against 500 random probes.

Another data set has as its target VDR:RXRa (Homo sapiens, UniProt P11473;P19793 full;full). The description is as above. The following applies: tags: His kept;His cleaved; copies: 1;1; label: surface-attached array probe. The method, boiled down: as §1
Turning to B2, the binding signal is -0.67 PBM z-score against 500 random probes.
Take B3: the binding signal was -0.16 PBM z-score against 500 random probes.
For B4, the binding signal was -0.33 PBM z-score against 500 random probes.

The next data set has as its target PPARa:RXRa (Homo sapiens, UniProt Q07869;P19793 full;full). Described as above. Conditions: tags: GST kept;His cleaved; copies: 1;1; label: surface-attached array probe. The method, boiled down:
as §1
With B1, the binding signal is 6.49 PBM z-score against 500 random probes.
With B3, the binding signal is -0.08 PBM z-score against 500 random probes.
In the case of B5, the binding signal is 0.16 PBM z-score against 500 random probes.
For B6, the binding signal was 6.61 PBM z-score against 500 random probes.
Turning to B7, the binding signal is 6.73 PBM z-score against 500 random probes.

The target in a further data set is RARa:RXRa (Homo sapiens, UniProt P10276;P19793 full;full). The data set is described as above. The following applies: tags: His kept;His cleaved; copies: 1;1; label: surface-attached array probe. The method, boiled down:
as §1
As to B2, the binding signal is -0.52 PBM z-score against 500 random probes.
As for B8, the binding signal was 3.83 PBM z-score against 500 random probes.
Consider B1, for which the binding signal is 7.38 PBM z-score against 500 random probes.
Take B9: the binding signal was 7.46 PBM z-score against 500 random probes.
As for B10, the binding signal is -0.83 PBM z-score against 500 random probes.
As for B11, the binding signal is -0.66 PBM z-score against 500 random probes.
For B3, the binding signal is -0.05 PBM z-score against 500 random probes.
Take B12: the binding signal is 0.49 PBM z-score against 500 random probes.
As for B13, the binding signal is -0.74 PBM z-score against 500 random probes.
Take B14: the binding signal was -0.2 PBM z-score against 500 random probes.
On to B5, for which the binding signal was 0.34 PBM z-score against 500 random probes.
Same read-out and setting: the figure for B4 is -0.55 PBM z-score against 500 random probes; for B15 it is 7.89 PBM z-score against 500 random probes; for B16 it is 0.43 PBM z-score against 500 random probes.
For B17, the binding signal is 4.03 PBM z-score against 500 random probes.
Turning to B18, the binding signal is 0.08 PBM z-score against 500 random probes.
The same measure, in the same setting: for B19 the value was 7.04 PBM z-score against 500 random probes; for B6, 7.1 PBM z-score against 500 random probes.
In the case of B7, the binding signal is 7.7 PBM z-score against 500 random probes.
Regarding B20, the binding signal was 7.46 PBM z-score against 500 random probes.

For a further data set, the target named is LXRb:RXRa (Homo sapiens, UniProt P55055;P19793 full;full). The description is as above. The following applies: tags: His kept;His cleaved; copies: 1;1; label: surface-attached array probe. The method, boiled down: as §1
Chain of LXRb:RXRa (P55055 whole entry, chain 1 of 2): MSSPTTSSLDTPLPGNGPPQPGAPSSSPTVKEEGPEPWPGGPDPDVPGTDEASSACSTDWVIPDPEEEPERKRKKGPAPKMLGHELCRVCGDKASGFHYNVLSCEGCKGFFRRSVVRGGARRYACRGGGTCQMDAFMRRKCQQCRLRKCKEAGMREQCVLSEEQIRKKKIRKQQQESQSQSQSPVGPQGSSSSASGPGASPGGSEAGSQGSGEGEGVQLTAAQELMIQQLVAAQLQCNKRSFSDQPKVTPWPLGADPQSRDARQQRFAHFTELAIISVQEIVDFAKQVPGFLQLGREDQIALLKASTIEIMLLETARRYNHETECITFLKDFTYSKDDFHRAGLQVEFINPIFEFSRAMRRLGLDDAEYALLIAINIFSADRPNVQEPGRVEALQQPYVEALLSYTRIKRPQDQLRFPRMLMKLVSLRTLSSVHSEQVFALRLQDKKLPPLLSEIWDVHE
Chain of LXRb:RXRa (P19793 whole entry, chain 2 of 2): as the sequence (P19793 whole entry, chain 2 of 2) above
B8: the binding signal is 3.24 PBM z-score against 500 random probes.
Same read-out and setting: for B11 the value was -0.63 PBM z-score against 500 random probes; for B13, -1.03 PBM z-score against 500 random probes.
In the case of B17, the binding signal is 3.79 PBM z-score against 500 random probes.
Regarding B20, the binding signal is 5.85 PBM z-score against 500 random probes.

A further data set deals with RARg:RXRa (Homo sapiens, UniProt P13631;P19793 full;full). The data set is described as above. Conditions: tags: His kept;His cleaved; copies: 1;1; label: surface-attached array probe. A digest of the protocol:
as §1
B2: the binding signal is -0.13 PBM z-score against 500 random probes.
With B1, the binding signal is 8.13 PBM z-score against 500 random probes.
B12: the binding signal is -0.29 PBM z-score against 500 random probes.

Another data set concerns the target FXR:RXRa (Homo sapiens, UniProt Q96RI1;P19793 full;full). The data set is described as above. The following applies: tags: His kept;His cleaved; copies: 1;1; label: surface-attached array probe. A digest of the protocol: as §1
B2: the binding signal was -1.02 PBM z-score against 500 random probes.
With B1, the binding signal was 8.26 PBM z-score against 500 random probes.
As to B14, the binding signal is -0.49 PBM z-score against 500 random probes.
For the molecule B15, the binding signal is 7.78 PBM z-score against 500 random probes.
For the molecule B6, the binding signal was 7.75 PBM z-score against 500 random probes.

Another data set concerns the target RXRa (Homo sapiens, UniProt P19793). The experiment in a line: no ligand; PBM; 180 nM; PBS pH 7.4, 2% milk, 0.02% Triton X-100, 1 mM DTT, BSA, 0.4 mg/ml salmon testes DNA. The following applies: tags: His cleaved; chain copies: 2; label: surface-attached array probe.
With B2, the binding signal was -0.65 PBM z-score against 500 random probes.
Still for that read-out and setting: for B1 the value was 7.98 PBM z-score against 500 random probes.
Same read-out and setting: for B9 the value was 8.24 PBM z-score against 500 random probes; for B10, -0.29 PBM z-score against 500 random probes; for B12, -0.1 PBM z-score against 500 random probes.
Turning to B14, the binding signal was -0.13 PBM z-score against 500 random probes.
On to B5, for which the binding signal was -0.07 PBM z-score against 500 random probes.
The same measure, in the same setting: for B15 the value was 8.27 PBM z-score against 500 random probes.
As to B16, the binding signal was 0.35 PBM z-score against 500 random probes.
Turning to B18, the binding signal is -0.28 PBM z-score against 500 random probes.
B19: the binding signal is 7.85 PBM z-score against 500 random probes.
For B6, the binding signal is 8.11 PBM z-score against 500 random probes.
Turning to B7, the binding signal is 7.96 PBM z-score against 500 random probes.
On the same count and under the same terms, the figure for B20 is 7.82 PBM z-score against 500 random probes.
